Data from the RNAGym collection of RNA variant scans (doi:10.1073/pnas.2313332121).

B1: TPR t1 (parent)
chain: GACCAAUCUGCCCUCAGAGCUCGAGAACAUCUUCGGAUGCAGAGGAGGCAGGCUUCGGUGGCGCGAUAGCGCCAACGUCCUCAACCUCCAAUGCAUCCCACCACAUGAUGAUGCCUGAAGAGCCUUGGUUUUUUG

Variants of: B1
Test: polymerase ribozyme fitness, log enrichment relative to wild type (log ratio); higher = more active; in vitro selection for triplet polymerase activity
In short: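 Fitness measures genotype enrichment against wild-type enrichment on a logarithmic scale, with inverse-variance-weighted averaging of replicates. The logarithm is base 2, and genotypes were kept only with ≥10 input reads and ≥1 read per output in Illumina sequencing. The sequenced libraries came from one triplicate in vitro selection round, including frozen incubation at −7 °C, of PCR-built, transcribed mutant libraries of each subunit of a heterodimeric triplet polymerase ribozyme.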

In order of falling “polymerase ribozyme fitness (log ratio)” value:
1. GACCAAUCUGCCCUCAGAGCUCGAGAACAUCUUCGGAUGCAGAGGAGGCAGGCUUCGGUGGCGCGAUAGCGCCUACGUCCUCAACCUCCAAUGCAUCCCACCACAUGAUGAUGCCUGAAAAGCGUUGGUUUUUUG [A74U G120A C124G]  2
2. GACCAAUCUGCCCUCAGAGCUCGAGAACAUCUUCGGAUGCAGAGGAGGCAGGCUUCGGUGGCGCGAUAGCGCCAGCGUCCUCAACCUCCAAUGCAUCCCACCACAUGAUGAUGCCUGAAGGGCCUUGGUUUUUUG [A75G A121G]  1.42
3. GACCAAUCUGCCCUCAGAGCUCGAGAACAUCUUCGGAUGCAGAGGAGGCAGGCUUCGGUGGCGCGAUAGCGCCGACGUCCUCAACCUCCAAUGCAUCCCACCACAUGAUGAUGCCUGAACAGCCUUGGUUUUUUG [A74G G120C]  0.921
4. GACCAAUCUGCCCUCAGAGCUCGAGAACAUCUUCGGAUGCAGAGGAGGCAGGCUUCGGUGGCGCGAUAGCGCCUACGUCCUCAACCUCCAAUGCAUCCCACCACAUGAUGAUGCCUGAGGAGCCUUGGUUUUUUG [A74U A119G]  0.812
5. GACCAAUCUGCCCUCAGAGCUCGAGAACAUCUUCGGAUGCAGAGGAGGCAGGCUUCGGUGGCGCGAUAGCGCCUACGUCCUCAACCUCCAAUGCAUCCCACCACAUGAUGAUGCCUGAAGAGUCUUGGUUUUUUG [A74U C123U]  0.766
6. GACCAAUCUGCCCUCAGAGCUCGAGAACAUCUUCGGAUGCAGAGGAGGCAGGCUUCGGUGGCGCGAUAGCGCCUACGUCCUGAACCUCCAAUGCAUCCCACCACAUGAUGAUGCCUGAAGAGUCUUGGUUAUUCG [A74U C82G C123U U131A U134C]  0.478
7. GACCAAUCUGCCCUCAGAGCUCGAGAACAUCUUCGGAUGCAGAGGAGGCAGGCUUCGGUGGCGCGAUAGCGCCAGCGUCCUCCACCUCCAAUGCAUCCCACCACAUGAUGAUGCCUGAAGAGCCUUGGUCUAUUG [A75G A83C U130C U132A]  0.388
8. GACCAAUCUGCCCUCAGAGCUCGAGAACAUCUUCGGAUGCAGAGGAGGCAGGCUUCGGUGGCGCGAUAGCGCCGACGUCCUCAACCUCCAAUGCAUCCCACCACAUGAUAGUGCCUGAAGAGCCUUGGUUUUUUG [A74G G110A A111G]  0.0395
9. GACCAAUCUGCCCUCAGAGCUCGAGAACAUCUUCGGAUGCAGAGGAGGCAGGCUUCGGUGGCGCGAUAGCGCCUACGUCCUCAACCUCCAAUGCAUCCCACCACAUGAUGAUGCCUGAAAAGCCUUGGUUUUUUG [A74U G120A]  0.0292
10. GACCAAUCUGCCCUCAGAGCUCGAGAACAUCUUCGGAUGCAGAGGAGGCAGGCUUCGGUGGCGCGAUAGCGCCUACGUCCUUAACCUCCAAUGCAUCCCACCACAUGAUGAUGCCUGAAAAUCCUUGGUUUUUUG [A74U C82U G120A G122U]  -0.0704
11. GACCAAUCUGCCCUCAGAGCUCGAGAACAUCUUCGGAUGCAGAGGAGGCAGGCUUCGGUGGCGCGAUAGCGCCUACGUCCUCAACCGCCAAUGCAUCCCACCACAGGAUGAUGCCUGAAGUGCCUUGGUUUUUUG [A74U U87G U106G A121U]  -0.122
12. GACCAAUCUGCCCUCAGAGCUCGAGAACAUCUUCGGAUGCAGAGGAGGCAGGCUUCGGUGGCGCGAUAGCGCCUACGUCCUCAACCUCCAAUGCAUCCCACCACAUGAUGAUGCCUGAAGAGCCUUGGUUUUUUG [A74U]  -0.247
13. GACCAAUCUGCCCUCAGAGCUCGAGAACAUCUUCGGAUGCAGAGGAGGCAGGCUUCGGUGGCGCGAUAGCGCCUACGUCCUCAACCUCCAAUGCAUCCCAUCACAUGAUGAUGCCUGAAGAGCCUUGGUUUUUUG [A74U C101U]  -0.51
14. GACCAAUCUGCCCUCAGAGCUCGAGAACAUCUUCGGAUGCAGAGGAGGCAGGCUUCGGUGGCGCGAUAGCGCCUACGUCCUCAACCUCCAAUGCAUCCCACCACAUGAUGAUGCCUGUAGAGCCUUGGUUUUUUG [A74U A118U]  -0.576
15. GACCAAUCUGCCCUCAGAGCUCGAGAACAUCUUCGGAUGCAGAGGAGGCAGGCUUCGGUGGCGCGAUAGCGCCAGCGUCCUCAACCUCCAAUGCAUCUCACCACAUGAUGAUGCCUGAAGAGCCUUGGUUUUUUG [A75G C98U]  -0.624
16. GACCAAUCUGCCCUCAGAGCUCGAGAACAUCUUCGGAUGCAGAGGAGGCAGGCUUCGGUGGCGCGAUAGCGCCAGCGUUCUCAACCUCCAAUGCAUCCCACCACAUGAUGAUGCCUGAAGAGCCUUGGUUUUUUG [A75G C79U]  -0.682
17. GACCAAUCUGCCCUCAGAGCUCGAGAACAUCUUCGGAUGCAGAGGAGGCAGGCUUCGGUGGCGCGAUAGCGCCGACGUCCUCAACCUCCAAUGCAUCCCAACACAUGAUGAUGCCUGAAGAGCCUUGGUUUUUUG [A74G C101A]  -0.767
18. GACCAAUCUGCCCUCAGAGCUCGAGAACAUCUUCGGAUGCAGAGGAGGCAGGCUUCGGUGGCGCGAUAGCGCCUACGUCCUCAACCUCCAAUGCAUCCCACCACAUGAUGAUGCUUGUAGAGCUUUGGUUUUUUG [A74U C115U A118U C124U]  -0.812
19. GACCAAUCUGCCCUCAGAGCUCGAGAACAUCUUCGGAUGCAGAGGAGGCAGGCUUCGGUGGCGCGAUAGCGCCGACGUCCUCAACCUCCAAUGCAUCCCACUACAUGAUGAUGCCUGAUGAGCCUUGGUUUUUUG [A74G C102U A119U]  -0.954
20. GACCAAUCUGCCCUCAGAGCUCGAGAACAUCUUCGGAUGCAGAGGAGGCAGGCUUCGGUGGCGCGAUAGCGCCUACGUCCUCGACCUCCAAUGCAUCCCACCACAUGAUGAUGCCUGAAGAGCCUUGGUUUUUUG [A74U A83G]  -0.972
21. GACCAAUCUGCCCUCAGAGCUCGAGAACAUCUUCGGAUGCAGAGGAGGCAGGCUUCGGUGGCGCGAUAGCGCCUACGUCCUCAACCUCCAAUGCAUCCCACCACAUGAUGAUGCCUGAAGAGCCUUGGAUUUUUG [A74U U129A]  -1.52
22. GACCAAUCUGCCCUCAGAGCUCGAGAACAUCUUCGGAUGCAGAGGAGGCAGGCUUCGGUGGCGCGAUAGCGCCUACGUCCUCAUCCUCCAAUGCAUCCCACCACAUGAUGAUGCCUGAAGAGCCUUGGGUUUUUG [A74U A84U U129G]  -1.9
23. GACCAAUCUGCCCUCAGAGCUCGAGAACAUCUUCGGAUGCAGAGGAGGCAGGCUUCGGUGGCGCGAUAGCGCCUUCGUCCACAACCUCCAAUGCAUCCCACCACAUGAUGAUGCCUGAAGAGCCUUUGUUUUUUG [A74U A75U U81A G127U]  -1.96
24. GACCAAUCUGCCCUCAGAGCUCGAGAACAUCUUCGGAUGCAGAGGAGGCAGGCUUCGGUGGCGCGAUAGCGCCGACGUCCUCAACCUCCAAUGCAUCCCACUACAUGAUGAUGCCUGAAGAGCCUUGGUUUUUUG [A74G C102U]  -2.11
25. GACCAAUCUGCCCUCAGAGCUCGAGAACAUCUUCGGAUGCAGAGGAGGCAGGCUUCGGUGGCGCGAUAGCGCCUACGUCCUCAACCUCGAAUGCAUCCCACCACAUGAUGAAGCCUGAAGAGCCUUGGUUUUUUG [A74U C89G U112A]  -2.2
26. GACCAAUCUGCCCUCAGAGCUCGAGAACAUCUUCGGAUGCAGAGGAGGCAGGCUUCGGUGGCGCGAUAGCGCCUACGUCCUCAACCUCCAAUUCAUCCCACCACAUGAUGAUGCCUGAAAAGCCGUGGGUUUUUG [A74U G93U G120A U125G U129G]  -2.55
27. GACCAAUCUGCCCUCAGAGCUCGAGAACAUCUUCGGAUGCAGAGGAGGCAGGCUUCGGUGGCGCGAUAGCGCCUACGUCCUCAACCUCCAAUGCAUCCCACCACAUGAUGAUGCCUGAAGAGCCUUGCUUUUUUG [A74U G128C]  -2.66
28. GACCAAUCUGCCCUCAGAGCUCGAGAACAUCUUCGGAUGCAGAGGAGGCAGGCUUCGGUGGCGCGAUAGCGCCUACGUCCUCAACCUACAAUGCAUCCCACCAAAUGAUGAUGCCUGAAGAGCCUUGGUUUUUUG [A74U C88A C104A]  -2.72
29. GACCAAUCUGCCCUCAGAGCUCGAGAACAUCUUCGGAUGCAGAGGAGGCAGGCUUCGGUGGCGCGAUAGCGCCGACUUCCUCAACCUCCAAUGCAUCUCACCAAAUGAUGAUGCCUGAAGAGCCUUGGUUUUUUG [A74G G77U C98U C104A]  -2.74
30. GACCAAUCUGCCCUCAGAGCUCGAGAACAUCUUCGGAUGCAGAGGAGGCAGGCUUCGGUGGCGCGAUAGCGCCUACGUCCUCAACCUCCAAUGCAUCCCACCACAUGAUGAUGCGUGAAGAGCCUUGGAAUUUUG [A74U C115G U129A U130A]  -2.87
31. GACCAAUCUGCCCUCAGAGCUCGAGAACAUCUUCGGAUGCAGAGGAGGCAGGCUUCGGUGGCGCGAUAGCGCCUACGUCCUCAACCUCCAAGGCAUCCCACCACAUGAUGAUGCCUGAAGAGCCUUGGUUUUUUG [A74U U92G]  -3.01
32. GACCAAUCUGCCCUCAGAGCUCGAGAACAUCUUCGGAUGCAGAGGAGGCAGGCUUCGGUGGCGCGAUAGCGCCAGCGUCCUUCACCUCCAAUACAUCCCACCACCUGAUGAUGCCUGAAGAGCCUUGGUUUUUUG [A75G C82U A83C G93A A105C]  -3.08
33. GACCAAUCUGCCCUCAGAGCUCGAGAACAUCUUCGGAUGCAGAGGAGGCAGGCUUCGGUGGCGCGAUAGCGCCUACGUCCUCAACCUCCAAUGCAUCCCACCACCUGAUGAUGCCUGAAGAGCCUUGGUUUUUUG [A74U A105C]  -3.15
34. GACCAAUCUGCCCUCAGAGCUCGAGAACAUCUUCGGAUGCAGAGGAGGCAGGCUUCGGUGGCGCGAUAGCGCCUACGUCCUCAACCUCCAAUGCAUCCCACCACAUGAUGAACCCUGCAGAGCCUUGGUUUUUUG [A74U U112A G113C A118C]  -3.21
35. GACCAAUCUGCCCUCAGAGCUCGAGAACAUCUUCGGAUGCAGAGGAGGCAGGCUUCGGUGGCGCGAUAGCGCCUACGUCCUCAACCUCCAAUGCAUCCCACCACAUGAUGAUGACUGAAGAGCCUUGGAUUUUUG [A74U C114A U129A]  -3.53
36. GACCAAUCUGCCCUCAGAGCUCGAGAACAUCUUCGGAUGCAGAGGAGGCAGGCUUCGGUGGCGCGAUAGCGCCUACGUCCUCAACCUCCAAAGCAUCCCACCACAUGAUGAUGCCUGAAGAGCCUUGGUUUUUUG [A74U U92A]  -3.82
37. GACCAAUCUGCCCUCAGAGCUCGAGAACAUCUUCGGAUGCAGAGGAGGCAGGCUUCGGUGGCGCGAUAGCGCCAGCGUCCUCAACCUCCCAUGCAUCCCAGCACAUGAUGAUGCCUGAAGAGCCUUGGUUUUUUG [A75G A90C C101G]  -4.09
38. GACCAAUCUGCCCUCAGAGCUCGAGAACAUCUUCGGAUGCAGAGGAGGCAGGCUUCGGUGGCGCGAUAGCGCCUACGUCGUCAACCUCCAAUGCAUCCCACCACAUGAUGAAGCCUGAAGAGCCUUGGUUUUUUG [A74U C80G U112A]  -5.78
39. GACCAAUCUGCCCUCAGAGCUCGAGAACAUCUUCGGAUGCAGAGGAGGCAGGCUUCGGUGGCGCGAUAGCGCCGACGUCCUCAACCACCAAUGCAUCCCACCACAUGAUGAUGCCUCAAAUGCCUUGGAUUUUUG [A74G U87A G117C G120A A121U U129A]  -6.07
40. GACCAAUCUGCCCUCAGAGCUCGAGAACAUCUUCGGAUGCAGAGGAGGCAGGCUUCGGUGGCGCGAUAGCGCCUACGUCCUCAACCUCCAAUGCAUCCCACCACAUGAUAAUGCUUGAAGAGCCUUGGUUUUUUG [A74U G110A C115U]  -6.32
41. GACCAAUCUGCCCUCAGAGCUCGAGAACAUCUUCGGAUGCAGAGGAGGCAGGCUUCGGUGGCGCGAUAGCGCCUACGUCCUCAACCUCCAAUGCAUCAAACCACAUGAUGAUGCCUGAAGAGCCUUGGUUUUUUG [A74U C98A C99A]  -6.51
42. GACCAAUCUGCCCUCAGAGCUCGAGAACAUCUUCGGAUGCAGAGGAGGCAGGCUUCGGUGGCGCGAUAGCGCCUACGUCCUCAUCCUCCACUGCAUCCCACGACAUGAUGAUUCGUGGAGAGCCUUGUUUUUUUG [A74U A84U A91C C102G G113U C115G A118G G128U]  -7.73
